Experimental data published in US20070077597A1 (published 2007).

Key:
[1] = biological target: T1, LacI fusion clone 13 (Gt library), … (E. coli, UniProt P03023 1-360); experiment: panning, LacI Gt library on immobilized ROS membranes
T1 construct: also called L20
Method: (§1) For screening of the library by “panning,” rhodopsin receptors prepared according to Example 5 were immobilized directly on Immulon 4 (Dynatech) microtiter wells (0.1-1 μg of protein per well) in cold 35 mM HEPES, pH 7.5, containing 0.1 mM EDTA, 50 mM KCl and 1 mM dithiothreitol (HEK/DTT). After shaking for one hour at 4° C., unbound membrane fragments were washed away with HEK/DTT. The wells were blocked with 100 μl 2% BSA in HEKL (35 mM HEPES; 0.1 mM EDTA; 50 mM KCl; 0.2 M α-lactose; pH 7.5, with 1 mM DTT). For rounds 1 and 2, BSA was used for blocking; in later rounds 1% nonfat dry milk was used. For the first round of panning, about 24 wells of a 96-well plate were used. In subsequent rounds, 8 wells with receptor and 8 wells without receptor were prepared.
(§2) The Gt library was thawed (2 mL aliquot) and mixed with 6 mL lysis buffer on ice. Lysis buffer contains 4.25 mL HE (25 mM HEPES: 0.1 mM EDTA; pH 7.5); 1 mL 50% glycerol; 750 μL 10 mg/mL protease-free BSA in HE; 10 μL 0.5 M DTT; and 6.25 μL 0.2 M PMSF. Freshly prepared lysozyme solution (150 μL 10 mg/mL lysozyme in cold HE) was added and the tube was gently inverted several times and incubated on ice for no more than two minutes. The extent of lysis is evidenced by an increase in viscosity that can be observed by noting the slow migration of bubbles to the top of the tube after mixing. Lysis was terminated by mixing in 2 mL 20% lactose and 250 μL 2M KCl. The tube was centrifuged immediately at 13,000×g for 15 minutes at 4° C. and the supernatant transferred to a new tube. A small aliquot of 0.1% (the PRE sample) was saved in a separate, labeled tube. […] Immediately thereafter, the crude bacterial lysate from the peptide library (200 μL) was added to each well and allowed to shake gently for one hour at 4° C. For round 2, this same procedure was followed. In round 3, the amount of lysate used was reduced to 100 μL. In subsequent rounds, the lysate was diluted 1:10 in HEKL/BSA.

[2] = biological target: LacI fusion clone 6 (Gt library) (E. coli, UniProt P03023 1-360); experiment: as above
Method: as §1, §2

[3] = biological target: LacI fusion clone 16 (Gt library) (E. coli, UniProt P03023 1-360); experiment: as above
Method: as §1, §2

[4] = biological target: LacI fusion clone 19 (Gt library) (E. coli, UniProt P03023 1-360); experiment: as above
Method: as §1, §2

[5] = biological target: T2, LacI fusion clone 8 (Gt library) (E. coli, UniProt P03023 1-360); experiment: as above
T2 construct: also called Peptide 8; HAP
Method: as §1, §2

[6] = biological target: LacI fusion clone 17 (Gt library, light-activated rhodopsin screen) (E. coli, UniProt P03023 1-360); experiment: as above
Method: as §1, §2

[7] = biological target: LacI fusion clone 18 (Gt library) (E. coli, UniProt P03023 1-360); experiment: as above
Method: as §1, §2

[8] = biological target: LacI fusion clone 24 (Gt library) (E. coli, UniProt P03023 1-360); experiment: as above
Method: as §1, §2

[9] = biological target: LacI fusion clone 15/28 (Gt library) (E. coli, UniProt P03023 1-360); experiment: as above
Method: as §1, §2

[10] = biological target: LacI fusion clone 23 (Gt library) (E. coli, UniProt P03023 1-360); experiment: as above
Method: as §1, §2

[11] = biological target: LacI fusion clone 3 (Gt library, light-activated rhodopsin screen) (E. coli, UniProt P03023 1-360); experiment: as above
Method: as §1, §2

[12] = biological target: LacI fusion clone 11 (Gt library) (E. coli, UniProt P03023 1-360); experiment: as above
Method: as §1, §2

[13] = biological target: LacI fusion clone 14 (Gt library) (E. coli, UniProt P03023 1-360); experiment: as above
Method: as §1, §2

[14] = biological target: LacI fusion clone 27 (Gt library) (E. coli, UniProt P03023 1-360); experiment: as above
Method: as §1, §2

[15] = biological target: LacI fusion clone 26 (Gt library, light-activated rhodopsin screen) (E. coli, UniProt P03023 1-360); experiment: as above
Method: as §1, §2

[16] = biological target: LacI fusion clone 4 (Gt library) (E. coli, UniProt P03023 1-360); experiment: as above
Method: as §1, §2

[17] = biological target: LacI fusion clone 26 (Gt library, dark-adapted rhodopsin screen) (E. coli, UniProt P03023 1-360); experiment: panning, LacI Gt library on immobilized ROS membranes kept in the dark
[18] = biological target: LacI fusion clone 2 (Gt library, dark-adapted rhodopsin screen) (E. coli, UniProt P03023 1-360); experiment: as above
[19] = biological target: LacI fusion clone 33/37 (Gt library, dark-adapted rhodopsin screen) (E. coli, UniProt P03023 1-360); experiment: as above
[20] = biological target: LacI fusion clone 17 (Gt library, dark-adapted rhodopsin screen) (E. coli, UniProt P03023 1-360); experiment: as above
[21] = biological target: LacI fusion clone 7 (Gt library, dark-adapted rhodopsin screen) (E. coli, UniProt P03023 1-360); experiment: as above
[22] = biological target: LacI fusion clone 21 (Gt library, dark-adapted rhodopsin screen) (E. coli, UniProt P03023 1-360); experiment: as above
[23] = biological target: LacI fusion clone 41 (Gt library, dark-adapted rhodopsin screen) (E. coli, UniProt P03023 1-360); experiment: as above
[24] = biological target: LacI fusion clone 3 (Gt library, dark-adapted rhodopsin screen) (E. coli, UniProt P03023 1-360); experiment: as above

Measured: binding result

B1: light-activated bovine rhodopsin (metarhodopsin II) in rod outer segment membranes (receptor, UniProt P02699 1-348, looked up)
chain: MNGTEGPNFYVPFSNKTGVVRSPFEAPQYYLAEPWQFSMLAAYMFLLIMLGFPINFLTLYVTVQHKKLRTPLNYILLNLAVADLFMVFGGFTTTLYTSLHGYFVFGPTGCNLEGFFATLGGEIALWSLVVLAIERYVVVCKPMSNFRFGENHAIMGVAFTWVMALACAAPPLVGWSRYIPEGMQCSCGIDYYTPHEETNNESFVIYMFVVHFIIPLIVIFFCYGQLVFTVKEAAAQQQESATTQKAEKEVTRMVIIMVIAFLICWLPYAGVAFYIFTHQGSDFGPIFMTIPAFFAKTSAVYNPVIYIMMNKQFRNCMVTTLCCGKNPLGDDEASTTVSKTETSQVAPA
modifications: retinylidene chromophore on Lys-296 (all-trans after light)
notes: whole, on cells; also called MII
binds: [1] | [2] | [3] | [4] | [5] | [6] | [7] | [8] | [9] | [10] | [11] | [12] | [13] | [14] | [15] | [16]

B2: dark-adapted bovine rhodopsin in rod outer segment membranes (receptor, UniProt P02699 1-348, looked up)
chain: B1 chain
modifications: 11-cis retinylidene chromophore on Lys-296
notes: whole, on cells; same protein as m1, left in the dark
binds: [17] | [18] | [19] | [20] | [21] | [22] | [23] | [24]
